Our source for the koff, kon and Kd values is patent US20230129812A1, “COMPOSITIONS AND METHODS FOR TREATING PULMONARY HYPERTENSION” (Acceleron Pharma Inc., priority 2020, published 2023).

Assay [1] concerns the target GDF8, O14793. As to the kind of experiment: SPR (Biacore); receptor-Fc captured by anti-Fc antibody, ligand injected. The following applies: remark: other sources report otherwise. For orientation: In SPR one partner is held on a chip, and binding of the other changes the refractive index at the surface.
The target of assay [2] is GDF8, O14793. Kind of assay: SPR (Biacore); receptor-Fc captured by anti-Fc antibody, ligand injected; † Very low signal. The following applies: remark: other sources report otherwise.
Sequence of GDF8, O14793 (O14793 267-375 limits assumed): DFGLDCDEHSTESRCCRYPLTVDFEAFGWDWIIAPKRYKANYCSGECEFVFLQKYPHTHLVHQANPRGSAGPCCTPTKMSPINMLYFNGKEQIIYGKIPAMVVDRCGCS

B1: ALK4-Fc homodimer, P36896 24-126 (Fc fusion, not shown: a dimerising Fc or GST)
chain: SGPRGVQALLCACTSCLQANYTCETDGACMVSIFNLDGMEHHVRTCIPKVELVPAGKPFYCLSSEDLRNTHCCYTDYCNRIDLRVPSGHLKEPEHPSMWGPVE
In the assay with GDF8, O14793 [1], B1 came in with a koff of 0.0019 s⁻¹ and an on-rate (kon) of 130000 M⁻¹ s⁻¹. The Kd with GDF8, O14793 [2] stood at 15 nM.

One may read the koff as the first-order rate constant of dissociation. Lower therefore signals slow dissociation. One may read the kon as the second-order rate constant of association. Higher therefore signals fast association. In general, Kd refers to the free concentration of one partner at which half of the binding sites on the other are occupied at equilibrium, for simple one-to-one binding. A higher Kd goes with weaker binding.
